# Legend:
# [1] = biological target: Crotalus durissus terrificus (C.d.t.) venom; experiment: ELISA, venom-coated wells (5 µg/ml); dilution 1:625
# [2] = biological target: Crotalus durissus terrificus (C.d.t.) venom; experiment: ELISA, venom-coated wells (5 µg/ml); dilution 1:125
# [3] = biological target: Crotalus durissus terrificus (C.d.t.) venom; experiment: ELISA, venom-coated wells (5 µg/ml); undiluted
# [4] = biological target: Crotalus durissus terrificus (C.d.t.) venom; experiment: ELISA, venom-coated wells (5 µg/ml); dilution 1:3125
# [5] = biological target: Crotalus durissus terrificus (C.d.t.) venom; experiment: ELISA, venom-coated wells; dilution 1:62,500
# [6] = biological target: Crotalus durissus terrificus (C.d.t.) venom; experiment: ELISA, venom-coated wells; dilution printed 1.5
# [7] = biological target: Crotalus durissus terrificus (C.d.t.) venom; experiment: ELISA, venom-coated wells; dilution 1:25
# [8] = biological target: Crotalus durissus terrificus (C.d.t.) venom; experiment: ELISA, venom-coated wells (5 µg/ml); dilution 1:25
# [9] = biological target: Crotalus durissus terrificus (C.d.t.) venom; experiment: ELISA, venom-coated wells (5 µg/ml); dilution 1:5
# [10] = biological target: Crotalus durissus terrificus (C.d.t.) venom; experiment: ELISA, venom-coated wells; dilution 1:625
# [11] = biological target: Crotalus durissus terrificus (C.d.t.) venom; experiment: ELISA, venom-coated wells; dilution 1:3125
# [12] = biological target: Crotalus durissus terrificus (C.d.t.) venom; experiment: ELISA, venom-coated wells; dilution 1:125
# [13] = biological target: Crotalus durissus terrificus (C.d.t.) venom; experiment: ELISA, venom-coated wells; dilution 1:312,500
substance,measurement,setting,value
preimmune IgY (antibody),ELISA absorbance,[1],0 absorbance
same,ELISA absorbance,[2],0.003 absorbance
same,ELISA absorbance,[3],0.003 absorbance
same,ELISA absorbance,[4],0.002 absorbance
same,ELISA absorbance (absorbance (412 nm filter)),[5],0.001
same,ELISA absorbance,[6],< 0 absorbance
same,ELISA absorbance,[7],0.016 absorbance
same,ELISA absorbance,[8],0 absorbance
same,ELISA absorbance,[9],< 0 absorbance
same,ELISA absorbance,[10],< 0 absorbance
same,ELISA absorbance,[11],< 0 absorbance
same,ELISA absorbance,[12],< 0 absorbance
same,ELISA absorbance (absorbance (412 nm filter)),[13],0.01

# — US20030054493A1
